Data reported in paper PMC10398351, “Structural and molecular insight into antibody recognition of dynamic neoepitopes in membrane tethered MUC1 of pancreatic cancer cells and secreted exosomes†” (RSC Chemical Biology, 2023).

Experiments:
PANC-1 cell surface MUC1 = molecular target: T1, PANC-1 cell surface MUC1 (Homo sapiens, PANC-1 cells, UniProt P15941, O-glycans ST, T and/or Tn at the Thr of the Asp-Thr-Arg region, as the paper concludes); experiment: flow cytometry on cells; PANC-1 cells with Alexa 488 conjugated SN-131, 2 h on ice in PBS/EDTA, without or with 10 μM MUC1-5ST (8); settings: one partner purified
T1 construct: MUC1, type 1 single-pass transmembrane mucin, endogenous in the human pancreatic cancer cell line PANC-1 (ATCC CRL-1469); also called endogenous MUC1 TRD; membrane-tethered MUC1; source: endogenous, on PANC-1 cells
T1 sequence (P15941 24-1255): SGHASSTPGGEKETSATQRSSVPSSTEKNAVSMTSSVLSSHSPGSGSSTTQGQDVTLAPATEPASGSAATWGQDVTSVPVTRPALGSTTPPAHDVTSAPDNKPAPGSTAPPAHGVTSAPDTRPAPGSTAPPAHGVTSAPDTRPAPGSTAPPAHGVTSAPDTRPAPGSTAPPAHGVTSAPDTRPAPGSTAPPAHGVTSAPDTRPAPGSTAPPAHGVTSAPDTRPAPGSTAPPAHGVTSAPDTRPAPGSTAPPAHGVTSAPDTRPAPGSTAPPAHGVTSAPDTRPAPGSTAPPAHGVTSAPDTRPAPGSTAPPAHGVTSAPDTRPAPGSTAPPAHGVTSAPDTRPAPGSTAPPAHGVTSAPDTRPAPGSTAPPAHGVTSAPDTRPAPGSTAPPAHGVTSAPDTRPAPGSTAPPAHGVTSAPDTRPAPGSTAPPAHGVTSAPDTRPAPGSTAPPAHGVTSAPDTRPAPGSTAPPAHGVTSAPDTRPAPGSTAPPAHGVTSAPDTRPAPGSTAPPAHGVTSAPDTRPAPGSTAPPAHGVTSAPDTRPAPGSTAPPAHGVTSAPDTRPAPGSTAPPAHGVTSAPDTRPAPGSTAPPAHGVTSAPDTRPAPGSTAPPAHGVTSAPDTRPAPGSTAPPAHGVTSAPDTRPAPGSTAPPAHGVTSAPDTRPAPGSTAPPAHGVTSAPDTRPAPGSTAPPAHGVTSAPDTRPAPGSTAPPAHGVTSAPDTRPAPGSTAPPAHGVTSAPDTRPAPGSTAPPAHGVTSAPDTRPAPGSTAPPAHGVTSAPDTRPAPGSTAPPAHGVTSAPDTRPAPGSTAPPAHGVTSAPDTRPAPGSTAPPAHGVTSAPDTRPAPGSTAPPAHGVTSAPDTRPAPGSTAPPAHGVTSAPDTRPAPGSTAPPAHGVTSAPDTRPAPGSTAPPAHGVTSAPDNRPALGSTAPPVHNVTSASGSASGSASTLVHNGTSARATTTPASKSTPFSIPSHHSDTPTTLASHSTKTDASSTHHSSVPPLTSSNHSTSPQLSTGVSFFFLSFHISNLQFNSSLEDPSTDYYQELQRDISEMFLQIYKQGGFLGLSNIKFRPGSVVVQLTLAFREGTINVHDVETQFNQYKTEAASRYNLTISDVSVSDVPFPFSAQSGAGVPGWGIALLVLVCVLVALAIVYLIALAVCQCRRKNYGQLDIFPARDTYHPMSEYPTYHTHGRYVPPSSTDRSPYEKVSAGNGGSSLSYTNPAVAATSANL

[1] = molecular target: T2, MUC1 TRD on exosomes released from PANC-1 cells (Homo sapiens, PANC-1 exosomes, UniProt P15941); experiment: ELISA; sandwich: exosomes from PANC-1 cells captured by coated anti-CD9 or anti-CD63 mAb, detected with AP-labelled SN-131 (1 μg/mL), room temperature; settings: one partner purified
T2 construct: also called exosomal MUC1 TRD-STs; cargo MUC1 TRD; source: endogenous, exosomes isolated by ultracentrifugation from PANC-1 culture supernatant
T2 sequence (P15941 24-1255): as above

| Binder | binding result (PANC-1 cell surface MUC1) | binding result [1] |
| --- | --- | --- |
| Alexa488-conjugated SN-131 (antibody, V domains shown, as the heavy chain of m1; Fab chains in PDB 8HRH; as the light chain of m1; IgG2a) VH: QVQLQQSGAELARPGASVKLSCKASGYTFTNYGLSWVKQRTGQGLEWIGENHPGSGIIYHNEKFRGKATLTADKSSSTAYVQLSSLTSEDSAVYFCARSSGTRGFAYWGQGTLVTVSA VL: DVLMTQTPLSLPVSLGDQASISCRSSQSIVHSNGNTYLEWYLQKPGQSPKLLIYKVSNRFSGVPDRFSGSGSGTDFTLKISRVEAEDLGVYYCFQGSHGPWTFGGGTKLEIK | binds |  |
| AP (alkaline phosphatase) labelled SN-131 mAb (antibody, V domains shown, as the heavy chain of m1; Fab chains in PDB 8HRH; as the light chain of m1; IgG2a) VH: QVQLQQSGAELARPGASVKLSCKASGYTFTNYGLSWVKQRTGQGLEWIGENHPGSGIIYHNEKFRGKATLTADKSSSTAYVQLSSLTSEDSAVYFCARSSGTRGFAYWGQGTLVTVSA VL: DVLMTQTPLSLPVSLGDQASISCRSSQSIVHSNGNTYLEWYLQKPGQSPKLLIYKVSNRFSGVPDRFSGSGSGTDFTLKISRVEAEDLGVYYCFQGSHGPWTFGGGTKLEIK |  | binds |
